One block for each binder: values may come before it.
What was measured:
[1] = molecular target: CaV1.2 (α1C) L-type calcium channel subunit; experiment: cell-based or functional assay
[2] = molecular target: T1, Protein A Sepharose CL-4B (Pharmacia) (UniProt P38507 37-477); experiment: immunoprecipitation from HEK293 lysates with protein-A beads only, Western blot with anti-HA Ab
T1 construct: Used alone (without anti-CaV1.2 antibody) as the negative control of the reciprocal immunoprecipitation; also called protein-A beads
Procedure: Formation of a stable complex of α₂δ-4 with other channel subunits was tested by coimmunprecipitation. The α₂δ-4 subunit was first tagged with an HA epitope and co-transfected with CaV1.2 (α1C) and β₃ subunits into HEK cells. Co-immunoprecipitation was carried out with transient transfected HEK 293 cells by constructs of α1C, β₃ and α₂δ-4 tagged with HA epitope. Two days after the transfection, the cells (from two 150 mm plates) were harvested and washed with PBS. The cells were then resuspended in 2 ml of detergent extraction buffer: 1% (vol/vol) Nonidet P-40, 0.5% deoxycholate, 150 mM NaCl, 5 mM EDTA, 50 mM Tris-HCl (pH 8.0) and 20 μl of protease inhibitor cocktail (Sigma), followed 10 passages each through 20 and 26-gauge needles. Cell extracts were cleared by centrifugation. […] After incubated at 4° C. for overnight, the beads were precipitated by brief centrifugation, and washed 3 times with 1 ml of lysis buffer. Finally, 100 μl of 1×SDS loading buffer were added, and 20 μl were subjected to 4-20% SDS. The co-precipitated subunits were then analyzed by Western blot with indicated antibodies.

B1: human calcium channel α2δ-4 subunit (other)
chain: MAVALGTRRRDRVKLWADTFGGDLYNTVTKYSGSLLLQKKYKDVESSLKIEEVDGLELVRKFSEDMENMLRRKVEAVQNLVEAAEEADLNHEFNESLVFDYYNSVLINERDEKGNFVELGAEFLLESNAHFSNLPVNTSISSVQLPTNVYNKDPDILNGVYMSEALNAVFVENFQRDPTLTWQYFGSATGFFRIYPGIKWTPDENGVITFDCRNRGWYIQAATSPKDIVILVDVSGSMKGLRMTIAKHTITTILDTLGENDFVNIIAYNDYVHYIEPCFKGILVQADRDNREHFKLLVEELMVKGVGVVDQALREAFQILKQFQEAKQGSLCNQAIMLISDGAVEDYEPVFEKYNWPDCKVRVFTYLIGREVSFADRMKWIACNNKGYYTQISTLADTQENVMEYLHVLSRPMVINHDHDIIWTEAYMDSKLLSSQAQSLTLLTTVAMPVFSKKNETRSHGILLGVVGSDVALRELMKLAPRYKLGVHGYAFLNTNNGYILSHPDLRPLYREGKKLKPKPNYNSVDLSEVEWEDQAESLRTAMINRETGTLSMDVKVPMDKGKRVLFLTNDYFFTDISDTPFSLGAVLSRGHGEYILLGNTSVEEGLHDLLHPDLALAGDWIYCITDIDPDHRKLSQLEAMIRFLTRKDPDLECDEELVREVLFDAVVTAPMEAYWTALALNMSEESEHVVDMAFLGTRAGLLRSSLFVGSEKVSDRKFLTPEDEASVFTLDRFPLWYRQASEHPAGSFVFNLRWAEGPESAGEPMVVTASTAVAVTVDKRTAIAAAAGVQMKLEFLQRKFWAATRQCSTVDGPYTQSCEDSDLDCFVIDNNGFILISKRSRETGRFLGEVDGAVLTQLLSMGVFSQVTMYDYQAMCKPSSHHHSAAQPLVSPISAFLTATRWLLQELVLFLLEWSVWGSWYDRGAEAKSVFHHSHKHKKQDPLQPCDTEYPVFVYQPAIREANGIVECGPCQKVFVVQQIPNSNLLLLVTDPTCDCSIFPPVLQEATEVKYNASVKCDRMRSQKLRRRPDSCHAFHPEVRVEADRGWAGFSSPNPLCLGLCPCRQEHIGMPMNTPVPVLLGGNIRVYAL
Ca^2+ influx (fluorescence change after depolarization with 50 mM KCl) in transfected HEK 293 cells [1]: 6 fold

binding result [2]: no binding
B2: human calcium channel α2δ-4 subunit tagged with HA epitope (other, not shown: small tags and cut ends)
chain: B1 chain
notes: Expressed by transient co-transfection with CaV1.2 (α1C) and β3 in HEK293 cells and tested in detergent lysates; also called α2δ-4(HA)

From patent US20030170785A1 (ORTHO MCNEIL PHARMACEUTICAL, published 2003)
